Here are results for five molecules from PMC5504291, “Bacterial lipid droplets bind to DNA via an intermediary protein that enhances survival under stress”.

Data set [1] concerns the target T1, MLDSR (GST-MLDSR) (Rhodococcus jostii RHA1, UniProt A0A1H4Y2R3 2-168).
T1 sequence: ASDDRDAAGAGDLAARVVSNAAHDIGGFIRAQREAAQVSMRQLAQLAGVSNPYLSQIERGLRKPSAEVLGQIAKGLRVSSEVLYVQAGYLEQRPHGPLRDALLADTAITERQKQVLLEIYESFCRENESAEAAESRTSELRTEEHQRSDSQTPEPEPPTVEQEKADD
Briefly: SPR; EMSA: 20 mM Tris-HCl pH 7.5, 150 mM NaCl, 5 mM MgCl2, 1 mM EDTA, 1 mM DTT, 4% glycerol, 24 C or room temperature, 30-40 min; SPR: 20 mM Tris-HCl pH 7.5, 150 mM. To be noted: protein: recombinant; tags: N-terminal GST; label: 5'-biotin on strand 1; blunt.

Data set [2] addresses T1, MLDSR (GST-MLDSR). Kind of data set: EMSA; EMSA: 20 mM Tris-HCl pH 7.5, 150 mM NaCl, 5 mM MgCl2, 1 mM EDTA, 1 mM DTT, 4% glycerol, 24 C or room temperature, 30-40 min; SPR: 20 mM Tris-HCl pH 7.5, 150 mM. To be noted: protein: recombinant; tags: N-terminal GST; blunt.
Data set [3] concerns the target T1, MLDSR (GST-MLDSR). Briefly: SPR; 1:1 model though DNA holds two sites; EMSA: 20 mM Tris-HCl pH 7.5, 150 mM NaCl, 5 mM MgCl2, 1 mM EDTA, 1 mM DTT, 4% glycerol, 24 C or room temperature, 30-40 min; SPR: 20 mM Tris-HCl pH 7.5, 150 mM. To be noted: protein: recombinant; tags: N-terminal GST; label: 5'-biotin on strand 1; blunt. Background: SPR reads the build-up and loss of mass on a sensor chip optically.

Data set [4] concerns the target T1, MLDSR (GST-MLDSR). Briefly: EMSA; rough estimate by authors from Fig. 5b; EMSA: 20 mM Tris-HCl pH 7.5, 150 mM NaCl, 5 mM MgCl2, 1 mM EDTA, 1 mM DTT, 4% glycerol, 24 C or room temperature, 30-40 min; SPR: 20 mM Tris-HCl pH 7.5, 150 mM. The conditions noted are these: protein: recombinant; tags: N-terminal GST; blunt.

Usually Kd stands for the equilibrium constant for the complex coming apart.

B1: biotin-motif 1 (20 bp) (dsDNA)
DNA 1: GTGCTTGCAATTGCTAGCAC
DNA 2: GTGCTAGCAATTGCAAGCAC
Take B1: the Kd with MLDSR (GST-MLDSR) [1] worked out at 175 nM.

B2: biotin-motif 2 (23 bp) (dsDNA)
DNA 1: TCCGCTAGCTGGGTGCTAACAGA
DNA 2: TCTGTTAGCACCCAGCTAGCGGA
On to B2, for which, in the data set with MLDSR (GST-MLDSR) [1], the Kd came out at 5140 nM.

B3: 103 bp (dsDNA)
DNA 1: CAATCGCCTCGACGGAGGGTCCGCTAGCTGGGTGCTAACAGAGTGCTTGCAATTGCTAGCACCCTGCTTTAGCCTTGGTTCTGCCCAGCAACACGGAGGACTG
DNA 2: CAGTCCTCCGTGTTGCTGGGCAGAACCAAGGCTAAAGCAGGGTGCTAGCAATTGCAAGCACTCTGTTAGCACCCAGCTAGCGGACCCTCCGTCGAGGCGATTG
For the molecule B3, the binding result with MLDSR (GST-MLDSR) [2] is “binds”.

B4: biotin-43 bp (motif 1+2) (dsDNA)
DNA 1: TCCGCTAGCTGGGTGCTAACAGAGTGCTTGCAATTGCTAGCAC
DNA 2: GTGCTAGCAATTGCAAGCACTCTGTTAGCACCCAGCTAGCGGA
Turning to B4, the Kd with MLDSR (GST-MLDSR) [3] was 62 nM.

B5: 43 bp (motif 1+2) (dsDNA)
DNA 1: B4 DNA 1
DNA 2: B4 DNA 2
B5: in the data set with MLDSR (GST-MLDSR) [4], the Kd was ~442 nM.
